Experiment [1] addresses putative VISTA-receptor on murine T-cells (2.10 T-cell clone; primary CD4+ T-cells) (mouse). As to the kind of experiment: cell-based or functional assay.
The target in experiment [2] is T1, hICOS-Fc (R&D Systems) (human, UniProt Q9Y6W8 21-141, limits assumed).
T1 construct: Bought from R&D Systems; also called human ICOS; not shown: Fc part of a bought fusion protein; not described
T1 sequence (looked up): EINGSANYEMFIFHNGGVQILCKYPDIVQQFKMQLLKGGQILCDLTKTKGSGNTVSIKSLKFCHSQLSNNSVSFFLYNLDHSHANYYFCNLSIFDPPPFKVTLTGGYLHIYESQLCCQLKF
The experiment can be described thus: SPR single cycle kinetics (Biacore T200), hICOS-Fc immobilized on a CM5 chip, 1:1 model. A general note: SPR reads the build-up and loss of mass on a sensor chip optically.

The target of experiment [3] is T1, hICOS-Fc (R&D Systems). As to the kind of experiment: SPR single cycle kinetics (Biacore T200), hICOS-Fc immobilized on a CM5 chip.

Take “VISTA-Fc (murine VISTA extracellular domain fused to the human IgG-1 Fc region; dimeric) (Fc fusion)”: the anti-CD3-induced 2.10 cell proliferation (3H-thymidine) in experiment [1] was > 30 µg/mL. Same read-out and setting: the figure for “murine VISTA.COMP pentamer, histidine tagged (VISTA.COMP.his) (ligand)” is 1 µg/mL.

B1: hICOSL-Fc (R&D Systems), dimeric human ICOS-L ECD Fc fusion (Fc fusion, not shown: a dimerising Fc or GST; small tags and cut ends)
chain: DTQEKEVRAMVGSDVELSCACPEGSRFDLNDVYVYWQTSESKTVVTYHIPQNSSLENVDSRYRNRALMSPAGMLRGDFSLRLFNVTPQDEQKFHCLVLSQSLGFQEVLSVEVTLHVAANFSVPVVSAPHSPSQDELTFTCTSINGYPRPNVYWINKTDNSLLDQALQNDTVFLNMRGLYDVVSVLRIARTPSVNIGCCIENVLLQQNLTVGSQTGNDIGERDKITENPVSTGEKNAATWS
modifications: Fc-mediated dimer (two copies); the Fc is left out.
On to B1, for which the Kd in the experiment with hICOS-Fc (R&D Systems) [2] is 2.9 nM.

B2: human ICOS-L.COMP pentamer (human ICOS-L extracellular domain fused to the COMP pentamerization domain, C-terminal histidine tag) (ligand)
chain: DTQEKEVRAMVGSDVELSCACPEGSRFDLNDVYVYWQTSESKTVVTYHIPQNSSLENVDSRYRNRALMSPAGMLRGDFSLRLFNVTPQDEQKFHCLVLSQSLGFQEVLSVEVTLHVAANFSVPVVSAPHSPSQDELTFTCTSINGYPRPNVYWINKTDNSLLDQALQNDTVFLNMRGLYDVVSVLRIARTPSVNIGCCIENVLLQQNLTVGSQTGNDIGERDKITENPVSTGEKNAATWSDLGPQMLRELQETNAALQDVRELLRQQVREITFLKNTVMECDACG
For B2, the “fold stronger KD than hICOSL-Fc” value in the experiment with hICOS-Fc (R&D Systems) [3] is ~3 fold. In addition, the Kd with hICOS-Fc (R&D Systems) [2] came to 0.9 nM.

As a reminder, the Kd is the constant that tells how readily two partners part at equilibrium. The low end stands for tighter binding, the high end for weaker binding.

These data come from patent publication US20220041685A1 (SUNNYBROOK RESEARCH INSTITUTE, published 2022).
